The target of experiment [1] is T1, CD133 protein (UniProt O43490 20-865).
T1 chain: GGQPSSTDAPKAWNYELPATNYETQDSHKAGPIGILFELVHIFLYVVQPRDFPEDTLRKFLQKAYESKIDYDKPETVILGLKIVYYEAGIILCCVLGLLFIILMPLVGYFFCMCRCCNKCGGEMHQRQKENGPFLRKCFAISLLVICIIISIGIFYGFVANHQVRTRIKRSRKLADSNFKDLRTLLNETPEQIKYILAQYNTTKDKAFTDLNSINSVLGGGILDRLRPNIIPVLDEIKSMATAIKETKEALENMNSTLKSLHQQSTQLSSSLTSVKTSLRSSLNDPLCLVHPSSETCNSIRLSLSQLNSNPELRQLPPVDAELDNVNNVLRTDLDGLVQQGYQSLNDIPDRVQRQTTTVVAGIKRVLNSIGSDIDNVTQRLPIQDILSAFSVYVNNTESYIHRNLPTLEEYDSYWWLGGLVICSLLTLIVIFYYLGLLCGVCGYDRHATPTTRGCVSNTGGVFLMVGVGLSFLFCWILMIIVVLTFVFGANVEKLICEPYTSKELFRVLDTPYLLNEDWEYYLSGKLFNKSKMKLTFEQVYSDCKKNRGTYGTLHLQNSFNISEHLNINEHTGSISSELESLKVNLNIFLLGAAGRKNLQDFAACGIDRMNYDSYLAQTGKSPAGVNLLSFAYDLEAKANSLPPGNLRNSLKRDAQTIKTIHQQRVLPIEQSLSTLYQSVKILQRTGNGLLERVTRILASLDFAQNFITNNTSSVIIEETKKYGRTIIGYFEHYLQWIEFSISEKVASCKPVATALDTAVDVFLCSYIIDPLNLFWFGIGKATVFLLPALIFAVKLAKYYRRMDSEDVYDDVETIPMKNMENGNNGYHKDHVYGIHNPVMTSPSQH
The experiment in a line: FACS; panel A, Median FI. (In general: Flow cytometry measures light scatter and fluorescence of single cells or particles in a stream.)

Experiment [2] addresses T1, CD133 protein. Description: FACS; panel A, Geo-Mean FI.
Experiment [3] addresses T2, CD133 protein (UniProt O43490 20-865, limits assumed).
T2 construct: whole, on cells; Presented on AC133/293 cells: paraformaldehyde-fixed in the cellular ELISA, unfixed in the phage FACS; also called CD133 antigen; AC133
T2 sequence (looked up): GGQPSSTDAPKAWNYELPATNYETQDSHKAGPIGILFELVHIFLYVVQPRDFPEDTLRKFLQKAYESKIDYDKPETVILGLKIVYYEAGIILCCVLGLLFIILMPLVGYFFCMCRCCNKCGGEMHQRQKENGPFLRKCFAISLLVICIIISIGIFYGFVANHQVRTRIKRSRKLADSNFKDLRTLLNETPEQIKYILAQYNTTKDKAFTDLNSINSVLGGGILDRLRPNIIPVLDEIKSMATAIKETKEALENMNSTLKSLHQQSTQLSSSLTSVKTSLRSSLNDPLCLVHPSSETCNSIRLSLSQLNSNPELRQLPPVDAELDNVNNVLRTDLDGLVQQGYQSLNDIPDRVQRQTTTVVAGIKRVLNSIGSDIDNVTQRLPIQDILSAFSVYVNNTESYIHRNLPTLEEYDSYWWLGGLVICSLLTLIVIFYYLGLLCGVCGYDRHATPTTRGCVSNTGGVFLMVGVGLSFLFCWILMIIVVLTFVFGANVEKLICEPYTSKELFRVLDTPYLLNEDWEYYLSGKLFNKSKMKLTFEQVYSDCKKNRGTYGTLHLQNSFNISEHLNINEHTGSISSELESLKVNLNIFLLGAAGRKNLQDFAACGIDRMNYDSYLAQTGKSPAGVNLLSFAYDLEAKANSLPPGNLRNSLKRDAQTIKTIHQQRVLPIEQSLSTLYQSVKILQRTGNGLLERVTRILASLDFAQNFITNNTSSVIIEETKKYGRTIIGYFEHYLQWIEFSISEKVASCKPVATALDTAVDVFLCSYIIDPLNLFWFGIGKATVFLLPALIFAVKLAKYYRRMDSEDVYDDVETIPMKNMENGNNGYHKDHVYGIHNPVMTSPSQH
Description: FACS of phage dilution series on AC133/293 cells, mean fluorescence index.

Experiment [4] addresses T2, CD133 protein. Description: FACS of phage dilution series on AC133/293 cells.

Where “and” joins values, the source holds several entries; their conditions need not be identical. Identical values can stand only once.

In general, Kd refers to the constant that tells how readily two partners part at equilibrium. A lower Kd goes with a tighter complex.

B1: phage clone 26 (humanized single chain antibody clone 26) (scFv)
scFv: DIQMTQSPKSLSASVGDRVTITCKASENVDTYVSWYQQKPGKAPKVLIYGASNRYTGVPSRFTGSGSATDFTLTISSLQPEDFATYYCGQSYRYPLTFAQGTKVEIKGGGGSGGGGSGGGGSEVQLVQSGAEVKKPGASVKVSCKASGYSFTNYYVHWVKQAPGQGLEWMGYVDPFNGDFNYNQKFKDRVTLTVDTSTSTAYMELSSLTSEDRAVYYCARGGLDWYDTSYWYFDVWGQGTLVTVSS
notes: not shown: fusion to the phage coat protein; display format not described
On to B1, for which the Kd with CD133 protein [1] was found to be 0.0213 nM; with CD133 protein [2], 0.0182 nM; in the experiment with CD133 protein [3], 0.0322 nM.

B2: phage clone 29 (humanized single chain antibody derived from phage clone 29) (scFv)
scFv: DIQMTQSPRSLSVSVGDRVTITCKASENVDTYVSWYQQKPGKAPKVLIYGASNRYTGVPSRFTGSGSATDFTLTISSLQPEDFATYYCGQSYRYPLTFGQGTKVEIKGGGGSGGGGSGGGGSEVQLVQSGAEVKKPGASVKVSCKACGYSFTNYYVHWVKQAPGQGLEWMGYVDPFNGDLNYNQKFKDRVTLTVDTSTSTAYMELSSLTSEDTAVYYCARGGLHCYDTSYWYFDVWGQGTLVTVSS
notes: as for B1
In the case of B2, in the experiment with CD133 protein [4], the Kd is 0.103 nM.

B3: phage clone 27 (humanized single chain antibody derived from phage clone 27) (scFv)
scFv: DIQMTQSPKSLSMSVGDRVTITCKASENVDTYVSWYQQKPGKAPKVLIYGASNRYTGVPSRFSGSGSATDFTLTISSLQPEDFATYHCGQSYRYPLTFGQGTKVEIKGGGGSGGGGSGGGGSEVQLVQSGAEVKKPGASVKVSCKASGYSFTNYYVHWVKQAPGQGLEWMGYVDPFNGDFNYNQKFKDRVTLTVDTSTPTAYMELSSLTPEDTAVYYCARGGLDWYDTSYWYFDVWGQGTLVTVSS
notes: as for B1
B3 had a Kd with CD133 protein [4] of 0.0508 nM.

B4: phage m1h harboring the mouse single chain sequence (scFv)
scFv: DILMTQSPKSMSMSLGERVTLSCKASENVDTYVSWYQQKPEQSPKVLIYGASNRYTGVPDRFTGSGSATDFSLTISNVQAEDLADYHCGQSYRYPLTFGAGTKLELKGGGGSGGGGSGGGGSEVQLQQSGPDLMKPGASVKISCKASGYSFTNYYVHWVKQSLDKSLEWIGYVDPFNGDFNYNQKFKDKATLTVDKSSSTAYMHLSSLTSEDSAVYYCARGGLDWYDTSYWYFDVWGAGTAVTVSS
notes: also called phage harboring the original mouse single chain antibody; not shown: fusion to the phage coat protein; display format not described
As to B4, the Kd with CD133 protein [4] is 0.0256 nM and 0.0269 nM; with CD133 protein [1] it was 0.0185 nM; with CD133 protein [2] it was 0.0174 nM.

Source of the values: US20130130315A1 (ADVANCECOR, published 2013).
